The assay concerns the target HepA (helicase protein A), archaeal HerA homolog of Thermus thermophilus, product of gene TTC0147 (Thermus thermophilus HB27). Kind of assay: negative-stain single-particle electron microscopy; purified HepA at 0.3 mg/mL in 20 mM Tris-HCl pH 7.5, pre-incubated with 1-10 mM ATP (30 min, 65 °C), 2% uranyl acetate; 2D classification and 3D reconstruction with C6 symmetry.

In general, stoichiometry N refers to the number of molecules, sites or subunits per partner or assembly. For “HepA (helicase protein A), archaeal HerA homolog of Thermus thermophilus, product of gene TTC0147 (enzyme)”, the stoichiometry N worked out at 6.

For the origin of these results see paper PMC5448004.
